From patent US20180155451A1 (published 2018)

T1: FcγRIIb extracellular domain with C-terminal His tag (human, UniProt P31994 43-217)
T1 construct: extracellular domain; soluble receptor expressed in FreeStyle293 cells, used as analyte in Biacore; also called FcgRIIb; 2b; not shown: His tag attached to the C terminus
T1 sequence (looked up): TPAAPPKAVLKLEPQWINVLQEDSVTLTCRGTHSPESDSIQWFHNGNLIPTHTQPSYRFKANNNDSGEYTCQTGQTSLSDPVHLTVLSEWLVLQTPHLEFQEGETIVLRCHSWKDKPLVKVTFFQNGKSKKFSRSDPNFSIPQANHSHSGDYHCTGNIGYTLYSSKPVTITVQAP

T2: FcγRIIb extracellular domain with C-terminal His tag (human, UniProt P31994 43-217)
T2 construct: extracellular domain; also called 2b; FcgRIIb; not shown: His tag at the C terminus
T2 sequence (looked up): T1 sequence (looked up)

T3: FcγRIIb (human, UniProt P31994 43-217)
T3 construct: extracellular domain; also called FcgRIIb; 2b; not shown: His tag at the C terminus
T3 sequence (looked up): T1 sequence (looked up)

B1: GpH7-A5/GpH7-B3 variant D270_01G/GpL16-k0 (antibody, human IgG1, kappa)
heavy 1: not shown
heavy 2: not shown
light: DIVMTQSPLSLPVTPGEPASISCQASESLVHSNRNTYLHWYLQKPGQSPQLLIYKVSNRFSGVPDRFSGSGSGTDFTLKISRVEAEDVGVYYCSQNTHVPPTFGQGTKVEIERTVAAPSVFIFPPSDEQLKSGTASVVCLLNNFYPREAKVQWKVDNALQSGNSQESVTEQDSKDSTYSLSSTLTLSKADYEKHKVYACEVTHQGLSSPVTKSFNRGEC
notes: heterodimerized anti-glypican-3 IgG1; alteration in the GpH7-B3 chain only; also called He Ab
B2: GpH7-A5/GpH7-B3 variant V266_18N/GpL16-k0 (antibody, human IgG1, kappa)
heavy 1: not shown
heavy 2: not shown
light: B1 light
notes: He Ab: mutation in the GpH7-B3 H chain only; also called He Ab
B3: GpH7-A5/GpH7-B3 variant V266_19Q/GpL16-k0 (antibody, human IgG1, kappa)
heavy 1: not shown
heavy 2: not shown
light: B1 light
notes: as for B2
B4: GpH7-A5/GpH7-B3 variant Q295_09D/GpL16-k0 (antibody, human IgG1, kappa)
heavy 1: not shown
heavy 2: not shown
light: B1 light
notes: He Ab: mutation only in the GpH7-B3 H chain; EU numbering; also called He Ab
B5: GpH7-A5/GpH7-B3 variant Y296_07I/GpL16-k0 (antibody, human IgG1, kappa)
heavy 1: not shown
heavy 2: not shown
light: B1 light
notes: as for B4
B6: GpH7-A5/GpH7-B3 variant S298_04F/GpL16-k0 (antibody, human IgG1, kappa)
heavy 1: not shown
heavy 2: not shown
light: B1 light
notes: as for B4
B7: GpH7-A5/GpH7-B3 variant S298_18N/GpL16-k0 (antibody, human IgG1, kappa)
heavy 1: not shown
heavy 2: not shown
light: B1 light
notes: as for B4
B8: GpH7-A5/GpH7-B3 variant S298_01G/GpL16-k0 (antibody, human IgG1, kappa)
heavy 1: not shown
heavy 2: not shown
light: B1 light
notes: as for B4
B9: GpH7-A5/GpH7-B3 variant Y296_13S/GpL16-k0 (antibody, human IgG1, kappa)
heavy 1: not shown
heavy 2: not shown
light: B1 light
notes: as for B4
B10: GpH7-A5/GpH7-B3 variant S298_07I/GpL16-k0 (antibody, human IgG1, kappa)
heavy 1: not shown
heavy 2: not shown
light: B1 light
notes: as for B4
B11: GpH7-A5/GpH7-B3 variant S298_11K/GpL16-k0 (antibody, human IgG1, kappa)
heavy 1: not shown
heavy 2: not shown
light: B1 light
notes: as for B4
B12: GpH7-A5/GpH7-B3 variant Q295_14T/GpL16-k0 (antibody, human IgG1, kappa)
heavy 1: not shown
heavy 2: not shown
light: B1 light
notes: as for B4
B13: GpH7-A5/GpH7-B3 variant S298_03V/GpL16-k0 (antibody, human IgG1, kappa)
heavy 1: not shown
heavy 2: not shown
light: B1 light
notes: as for B4
B14: GpH7-A5/GpH7-B3 variant S298_09D/GpL16-k0 (antibody, human IgG1, kappa)
heavy 1: not shown
heavy 2: not shown
light: B1 light
notes: as for B4
B15: GpH7-A5/GpH7-B3 variant Q295_16H/GpL16-k0 (antibody, human IgG1, kappa)
heavy 1: not shown
heavy 2: not shown
light: B1 light
notes: as for B4
B16: GpH7-A5/GpH7-B3 variant Y296_03V/GpL16-k0 (antibody, human IgG1, kappa)
heavy 1: not shown
heavy 2: not shown
light: B1 light
notes: as for B4
B17: GpH7-A5/GpH7-B3 variant Y296_12R/GpL16-k0 (antibody, human IgG1, kappa)
heavy 1: not shown
heavy 2: not shown
light: B1 light
notes: as for B4
B18: GpH7-A5/GpH7-B3 variant Y296_11K/GpL16-k0 (antibody, human IgG1, kappa)
heavy 1: not shown
heavy 2: not shown
light: B1 light
notes: as for B4
B19: GpH7-A5/GpH7-B3 variant Y296_04F/GpL16-k0 (antibody, human IgG1, kappa)
heavy 1: not shown
heavy 2: not shown
light: B1 light
notes: as for B4
B20: GpH7-A5/GpH7-B3 variant Y296_06M/GpL16-k0 (antibody, human IgG1, kappa)
heavy 1: not shown
heavy 2: not shown
light: B1 light
notes: as for B4

target: T4, FcγRIa extracellular domain with C-terminal His tag (human, UniProt P12314 16-292); assay: SPR (Biacore), antibody captured on antigen peptide chip, FcγR as analyte; relative binding
T4 construct: extracellular domain; soluble receptor expressed in FreeStyle293 cells, used as analyte in Biacore; also called FcgRI; 1a; not shown: His tag attached to the C terminus
T4 sequence (P12314 16-292): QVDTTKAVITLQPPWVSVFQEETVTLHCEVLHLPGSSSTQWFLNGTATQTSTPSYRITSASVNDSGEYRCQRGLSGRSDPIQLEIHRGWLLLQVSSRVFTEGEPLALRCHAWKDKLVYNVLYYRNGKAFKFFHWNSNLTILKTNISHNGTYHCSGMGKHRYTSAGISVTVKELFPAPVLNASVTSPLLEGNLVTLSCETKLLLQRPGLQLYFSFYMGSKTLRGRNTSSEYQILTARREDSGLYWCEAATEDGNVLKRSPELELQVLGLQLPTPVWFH

He/Con_1a | Binder
76.3 % of control GpH7-A5/GpH7-B3/GpL16-k0 (=100) | B1

target: T1, FcγRIIb extracellular domain with …; assay: as above

He/Con_2b | Binder
30.5 % of control GpH7-A5/GpH7-B3/GpL16-k0 (=100) | B1

target: T2, FcγRIIb extracellular domain with …; assay: SPR (Biacore), relative binding, GpH7-A5/GpH7-B3/GpL16-k0 = 100
Experimental: (§1) Analysis of interaction between objective antibody and the FcγR was carried out using Biacore T100 (GE Healthcare). HBS-EP+ (GE Healthcare) was used as the running buffer, and the measurement temperature was set to 25° C. Chips produced by immobilizing the antigen peptide by the amine coupling method to a Series S Sencor Chip CM5 (GE Healthcare), or alternatively, chips produced by allowing preliminarily biotinylated antigen peptides to interact with and immobilize onto a Series S Sensor Chip SA (certified) (GE Healthcare) were used. Antibodies of interest were captured onto an antigen peptide-immobilized chip, and allowed to interact to each FcγR diluted with running buffer. To regenerate and repeatedly use the chip, the antibodies captured on the chip were washed off by reacting 10 mM glycine-HCl, pH 1.5.
(§2) The FcγR-binding activity of each antibody was assessed primarily using as an indicator the FcγR-binding activity and dissociation constant for FcγR.

He/Con_2b | Binder
69.7 % of control | B2
89.2 % of control | B3

target: T5, FcγRIIIa extracellular domain with C-terminal His tag (human, UniProt P08637 17-208); assay: as above
T5 construct: extracellular domain; also called 3a; FcgRIIIa; not shown: His tag at the C terminus
Experimental: as §1, §2

T5 sequence (P08637 17-208): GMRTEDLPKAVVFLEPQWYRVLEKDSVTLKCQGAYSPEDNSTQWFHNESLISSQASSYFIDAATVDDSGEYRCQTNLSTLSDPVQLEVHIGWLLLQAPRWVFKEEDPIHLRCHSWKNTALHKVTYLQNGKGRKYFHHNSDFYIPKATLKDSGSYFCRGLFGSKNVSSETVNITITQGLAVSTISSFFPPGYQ

He/Con_3a | Binder
30.4 % of control | B2
34.7 % of control | B3

target: T3, FcγRIIb; assay: SPR (Biacore), captured antibody, soluble FcγR; relative to GpH7-A5/GpH7-B3/GpL16-k0

He/Con_2b | Binder
60.8 relative, HeCon Ab = 100 | B4
84.3 relative, HeCon Ab = 100 | B5
65.4 relative, HeCon Ab = 100 | B6
48.1 relative, HeCon Ab = 100 | B7
80.1 relative, HeCon Ab = 100 | B8
86.3 relative, HeCon Ab = 100 | B9
70.6 relative, HeCon Ab = 100 | B10
61.3 relative, HeCon Ab = 100 | B11
66.8 relative, HeCon Ab = 100 | B12
64.5 relative, HeCon Ab = 100 | B13
48.3 relative, HeCon Ab = 100 | B14
62.7 relative, HeCon Ab = 100 | B15
79.3 relative, HeCon Ab = 100 | B16
79.5 relative, HeCon Ab = 100 | B17
72.8 relative, HeCon Ab = 100 | B18
99.2 relative, HeCon Ab = 100 | B19
87.8 relative, HeCon Ab = 100 | B20

target: T6, FcγRIa (human, UniProt P12314 16-292); assay: as above
T6 construct: extracellular domain; also called FcgRI; 1a; not shown: His tag at the C terminus
T6 sequence (P12314 16-292): as the sequence (P12314 16-292) above

He/Con_1a | Binder
100 relative, HeCon Ab = 100 | B4
104 relative, HeCon Ab = 100 | B5
109 relative, HeCon Ab = 100 | B6
108 relative, HeCon Ab = 100 | B7
104 relative, HeCon Ab = 100 | B8
105 relative, HeCon Ab = 100 | B9
107 relative, HeCon Ab = 100 | B10
109 relative, HeCon Ab = 100 | B11
103 relative, HeCon Ab = 100 | B12
110 relative, HeCon Ab = 100 | B13
106 relative, HeCon Ab = 100 | B14
102 relative, HeCon Ab = 100 | B15
104 relative, HeCon Ab = 100 | B16
106 relative, HeCon Ab = 100 | B17
105 relative, HeCon Ab = 100 | B18
104 relative, HeCon Ab = 100 | B19
104 relative, HeCon Ab = 100 | B20
